The Immune Epitope Database (IEDB)

Assays:
HLA-B*58:01 [1] = experiment: IEDB peptide-MHC binding, purified MHC/competitive/radioactivity; filed as Kd, often an IC50 or EC50 that approximates it; ≥ and ≤ were set here for values at or beyond the usual limits of such assays
HLA-B*53:01 = experiment: as above; conditions: source organism: Dengue virus 4 Philippines/H241/1956
HLA-B*57:01 [2] = experiment: as above
HLA-B*40:01 [3] = experiment: IEDB peptide-MHC binding, purified MHC/competitive/fluorescence; filed as Kd, often an IC50 or EC50 that approximates it; ≥ and ≤ were set here for values at or beyond the usual limits of such assays; conditions: source organism: Shigella flexneri 5 str. 8401
HLA-B*51:01 [4] = experiment: IEDB peptide-MHC binding, purified MHC/direct/fluorescence; filed as Kd, often an IC50 or EC50 that approximates it; ≥ and ≤ were set here for values at or beyond the usual limits of such assays
HLA-A*01:01 [5] = experiment: IEDB peptide-MHC binding, purified MHC/competitive/radioactivity; filed as Kd, often an IC50 or EC50 that approximates it; ≥ and ≤ were set here for values at or beyond the usual limits of such assays; conditions: source organism: Dengue virus 1 Brazil/97-11/1997
HLA-B*39:01 = experiment: IEDB peptide-MHC binding, purified MHC/competitive/fluorescence; filed as Kd, often an IC50 or EC50 that approximates it; ≥ and ≤ were set here for values at or beyond the usual limits of such assays; conditions: source organism: Orthohantavirus andesense
HLA-B*15:17 = experiment: as above; conditions: source organism: Orthohantavirus andesense
HLA-B*27:03 = experiment: as above; conditions: source organism: Orthohantavirus andesense
HLA-B*51:01 [6] = experiment: as above; conditions: source organism: Orthohantavirus andesense
HLA-A*26:01 = experiment: as above; conditions: source organism: Orthohantavirus andesense
HLA-B*07:02 = experiment: IEDB peptide-MHC binding, purified MHC/direct/fluorescence; filed as Kd, often an IC50 or EC50 that approximates it; ≥ and ≤ were set here for values at or beyond the usual limits of such assays
HLA-A*11:01 = experiment: as above; conditions: source organism: Orthohantavirus andesense
HLA-A*31:01 = experiment: as above; conditions: source organism: Orthohantavirus andesense
HLA-B*40:01 [7] = experiment: as above; conditions: source organism: Orthohantavirus andesense
HLA-B*27:05 = experiment: as above; conditions: source organism: Orthohantavirus andesense
HLA-A*68:02 = experiment: as above; conditions: source organism: Orthohantavirus andesense
HLA-A*03:01 = experiment: as above; conditions: source organism: Orthohantavirus andesense
HLA-B*58:01 [8] = experiment: as above; conditions: source organism: Orthohantavirus andesense
HLA-A*29:02 = experiment: as above; conditions: source organism: Orthohantavirus andesense
HLA-A*02:12 = experiment: as above; conditions: source organism: Orthohantavirus andesense
HLA-A*01:01 [9] = experiment: as above; conditions: source organism: Orthohantavirus andesense
HLA-A*69:01 = experiment: as above; conditions: source organism: Orthohantavirus andesense
HLA-B*18:01 = experiment: as above; conditions: source organism: Orthohantavirus andesense
HLA-B*57:01 [10] = experiment: as above; conditions: source organism: Orthohantavirus andesense
HLA-B*46:01 = experiment: as above; conditions: source organism: Orthohantavirus andesense
HLA-B*08:01 = experiment: as above; conditions: source organism: Orthohantavirus andesense
HLA-B*15:01 = experiment: as above; conditions: source organism: Orthohantavirus andesense
HLA-B*48:01 = experiment: as above; conditions: source organism: Orthohantavirus andesense
HLA-A*02:01 = experiment: as above; conditions: source organism: Orthohantavirus andesense
[11] = source organism: Dengue virus 4 Philippines/H241/1956
[12] = source organism: Dengue virus 3 Martinique/1243/1999
[13] = source organism: Dengue virus 1 Brazil/97-11/1997
[14] = source organism: Brucella abortus

IAVASGLLW
Kd (HLA-B*58:01 [1]; [11]): 0.000661 µM
Kd (HLA-B*53:01): 0.0312 µM
Kd (HLA-B*57:01 [2]; [11]): 0.00221 µM

TEAKIISLL
Kd (HLA-B*40:01 [3]): 0.0081 µM

GTSLTQKVVI
Kd (HLA-B*58:01 [1]; [12]): 0.194 µM
Kd (HLA-B*57:01 [2]; [12]): 2.3 µM

MPSSYAAGM
Kd (HLA-B*51:01 [4]; source organism: Giardia lamblia ATCC 50803): 0.863 µM

LTGGVTLFF
Kd (HLA-B*58:01 [1]; [13]): 0.107 µM
Kd (HLA-A*01:01 [5]): 18.9 µM

SSSMRKTDW
Kd (HLA-B*57:01 [2]; [12]): 0.416 µM

STSLLFLNDM
Kd (HLA-B*57:01 [2]; [11]): 0.0864 µM

SIKFKRKLM
Kd (HLA-B*39:01): ≥ 20 µM
Kd (HLA-B*15:17): ≥ 20 µM
Kd (HLA-B*27:03): ≥ 20 µM
Kd (HLA-B*51:01 [6]): ≥ 20 µM
Kd (HLA-A*26:01): ≥ 20 µM
Kd (HLA-B*07:02; source organism: Orthohantavirus andesense): ≥ 20 µM
Kd (HLA-A*11:01): ≥ 20 µM
Kd (HLA-A*31:01): ≥ 20 µM
Kd (HLA-B*40:01 [7]): ≥ 20 µM
Kd (HLA-B*27:05): ≥ 20 µM
Kd (HLA-A*68:02): ≥ 20 µM
Kd (HLA-A*03:01): ≥ 20 µM
Kd (HLA-B*58:01 [8]): ≥ 20 µM
Kd (HLA-A*29:02): ≥ 20 µM
Kd (HLA-A*02:12): ≥ 20 µM
Kd (HLA-A*01:01 [9]): ≥ 20 µM
Kd (HLA-A*69:01): ≥ 20 µM
Kd (HLA-B*18:01): ≥ 20 µM
Kd (HLA-B*57:01 [10]): ≥ 20 µM
Kd (HLA-B*46:01): ≥ 20 µM
Kd (HLA-B*08:01): ≥ 5 µM
Kd (HLA-B*15:01): ≥ 20 µM
Kd (HLA-B*48:01): ≥ 20 µM
Kd (HLA-A*02:01): ≥ 20 µM

LPAIIRPSF
Kd (HLA-B*07:02; [14]): 0.104 µM
Kd (HLA-B*51:01 [4]; [14]): ≥ 20 µM

VASAAQRRGR
Kd (HLA-B*58:01 [1]; [13]): 0.16 µM

KTTLSLDYAW
Kd (HLA-B*57:01 [2]; [13]): 0.000847 µM
